Assay results published in the RNAGym collection of RNA variant scans (doi:10.1021/acssynbio.7b00057).

B1: Pistol ribozyme (parent)
chain: GGGUCGUUGUUCCAUAAUCGCGUGGAUAUGGCACGCAAGUUUCUACCGGGCACCGUAAAUGUCCGACUGGAGCCGUUCGGGCGGCUAUAAACAGACCUCAGGCCCGAAGCGUGGCGGCACCUGCCGCCGGUGGUAAAAAAGAUCGGAAGAGCACACGUCU

Variants of: B1
Assay: aptazyme ON/OFF ratio, guanine; higher = stronger switching; co-transcriptional cleavage with and without guanine

In order of falling “aptazyme ON/OFF ratio” value:
1. G9U U10A U11G  2.39
2. U10A U11A C12U C13U  1.69
3. U7A U8G G9U U10C U11A C12G  1.61
4. U7G U8C G9U U10A U11A C12G  1.6
5. U7A U8G G9U U10C C12U C13G  1.54
6. U7G U8G G9A U10A U11A  1.53
7. U8C C12U  1.49
8. G9U U11A C12U  1.47
9. G9C U10G C12U  1.47
10. U7A U8G G9U U10G U11C C12U C13G  1.47
11. U7C U8G G9A U10G C12U C13A  1.46
12. U8G G9A U10G U11G C13U  1.45
13. U7G U8G G9U U11C C13A  1.4
14. G9C U10A U11A C12A C13A  1.4
15. U7C U8C G9C U10C U11A  1.4
16. U7A U8G C12G C13U  1.38
17. U8C G9A C12U  1.38
18. U7G U8C U10C U11G C13U  1.38
19. U7A U8G G9C U10A U11A C12A C13U  1.38
20. U7A U8C U11C C12A C13U  1.37
21. U8A G9C C12A  1.37
22. U8A U10A U11G C12G  1.36
23. C13A  1.36
24. U7G U8A C13A  1.35
25. U8G G9U U11A C12U C13U  1.35
26. U7A U8G G9C U10A U11A C12A C13G  1.35
27. U8G G9A U10G U11A C12A  1.34
28. U7G U8C G9U U10G U11G C12A C13U  1.34
29. U7A U8G G9A U10C U11G C12U C13G  1.33
30. U8C U10A U11G C12U C13A  1.32
31. U8A U10G U11G C12G C13U  1.32
32. U7C U8A C12U C13U  1.32
33. U7A U8C G9U U10C U11G C13G  1.31
34. U7C U10A U11C C12G C13G  1.31
35. U7C U11G C12G  1.31
36. U7C U8A U10A U11A C12G C13G  1.31
37. U7A U8C G9A U10A U11G C12G C13G  1.31
38. U7G U8C G9C U10A U11C C12U C13G  1.3
39. U7G U8C G9U U10G C12U C13A  1.29
40. U7C U8G G9A C12A C13U  1.29
41. U8C G9A U11G C12U  1.29
42. U7G G9C U10A U11A C12U C13U  1.29
43. U7C U8A U10C U11G C12U C13A  1.28
44. U7C U8C U10C U11G C12U C13A  1.28
45. U8C G9A U10C C12A C13A  1.27
46. U7A U8A G9A U10A U11A C12G  1.27
47. U7A U8A G9U C12G C13G  1.27
48. U7G U8G G9C U10C C12G C13U  1.27
49. U7G U8G G9U C12U C13U  1.26
50. U7C U8G G9C U11A C13U  1.26
51. G9C C12G C13U  1.26
52. U7G U8C U10A C12U C13G  1.26
53. U7G U8G G9U U10C C12G C13U  1.25
54. U7A U10A U11A C12G C13U  1.25
55. U8C G9U U10C U11G C12U C13U  1.25
56. U7C U8G G9C U10G U11C C13A  1.25
57. U8C U10G U11A C12U C13U  1.25
58. U8C G9A U11A  1.25
59. G9U U10C U11G C12G C13G  1.24
60. U7A U11A C12G C13U  1.24
61. U8G G9A U11A C12U C13A  1.24
62. U8A G9A U10G U11A C12G C13A  1.24
63. U8C G9A U10C U11G C12G C13G  1.23
64. U8G G9A U10A U11C C12U C13G  1.23
65. U7A U8A G9U U10A U11G C12G C13A  1.23
66. U7G U8G G9C U10C U11A C12A C13G  1.23
67. U7C G9U U10A U11C C12A C13A  1.22
68. U7A G9U U11G C12A C13U  1.22
69. U8C G9C U10A U11G C12U  1.22
70. U7C U8C G9C U11G C12A  1.22
71. U7G G9A U10A U11C C12G  1.22
72. U7G U8A U10A U11A C12A C13A  1.21
73. U7G U8C G9U U10C U11G C12U C13G  1.21
74. U7C U8G G9C U10G U11A C12G C13G  1.21
75. U7G G9A U11A C12G  1.21
76. G9A U10C U11C C12G C13G  1.2
77. U8C G9A U10C U11A C13A  1.2
78. U8C G9C U10C U11G C12A C13A  1.2
79. U7G G9A U10A U11A C12U  1.2
80. U7C U8C G9A U10A U11A C12A C13A  1.2
81. U8G G9U U10A U11A C12G C13A  1.2
82. U8C G9U U10C C12G C13G  1.19
83. U7G U8G G9C U10G U11C C12G C13A  1.19
84. U7G G9U U10A U11C C13U  1.18
85. G9U U10C U11G C13G  1.18
86. U7C U8G G9A U10A C12G  1.18
87. G9C U10A U11C C12G  1.18
88. U7C U10A U11A C12A  1.17
89. U7C G9A U10G U11A C12A C13A  1.17
90. U7G U8A G9A U11A C12U C13A  1.17
91. U7G G9U C12G C13A  1.16
92. U7C U8A U10C U11G C12A C13A  1.16
93. U7A U8C G9A U11A C13A  1.16
94. U7A U8G G9C U10C U11A C13A  1.16
95. U7G U8G G9C U11G C13G  1.16
96. U7C U10C U11G C12U C13U  1.16
97. U7G U8C G9U U10G U11C  1.15
98. U7C G9U U10A U11C C12G C13U  1.15
99. U7A U8G G9C U10A U11A C12G C13A  1.15
100. U7C U11G C12G C13A  1.14
101. U8A G9C U10G U11G C12G C13A  1.14
102. U7C U8A G9U U10G U11C C12U C13G  1.14
103. U7C U8C U10G U11G C12G C13U  1.14
104. U7G U8G G9U U10G U11G C12G C13U  1.14
105. U7C G9C U10C U11A C12G C13U  1.14
106. U7A U8A U11G C12A  1.13
107. U8G G9U U11A C12G C13A  1.13
108. U7G G9U U11A C13G  1.13
109. U8G C12A C13G  1.13
110. U7G U8G G9U U10G U11G C12A  1.13
111. U7G U8A G9A U10C C12U C13U  1.12
112. U7A U8A G9A U11C C13G  1.12
113. U7A U8C G9A U10G U11G C12G C13U  1.12
114. U7C U8C U11A C12G C13U  1.12
115. U7C U8G G9A U10C U11A C13A  1.12
116. U7G U8G G9U U10C U11G C12A C13A  1.12
117. U7C U8C G9U U10G C12U C13G  1.12
118. U7C U8A G9C U10C U11G C12A  1.11
119. U7C U8C G9C U10G U11G C12A  1.11
120. U7C U8G U10G U11A C12A C13A  1.11
121. U7C U8C G9A U10G U11A C12U  1.11
122. U7C U8C G9C U10C U11G C12U C13G  1.1
123. U7A U8C G9C U10G U11C  1.1
124. U7C U8C G9U U10C C12U C13G  1.1
125. U7C G9U U10A U11G C12A C13G  1.1
126. U7A U8C G9A U10C U11A C12A C13G  1.1
127. U7A G9U U10A U11A C13G  1.1
128. U7G U8G G9U U10A U11G C12U C13A  1.1
129. U8C G9A U11A C12U  1.1
130. U7C U8A G9C U11C C12G C13U  1.1
131. U7C U8G G9C U10G U11G C12G C13A  1.1
132. U8G G9U U10G U11G C12G C13U  1.09
133. U7C G9U U10G U11A C12U  1.08
134. U7C G9U C12A C13G  1.08
135. U7G G9A U10G C12A C13U  1.08
136. U7A G9U U11A C12G C13A  1.08
137. U7A U8C G9C U11G C12A  1.08
138. U7G U8G G9U U10A U11G C12G  1.08
139. U7A U8C G9C C12U C13A  1.08
140. U7A U8C G9C U10C U11G C12G C13U  1.08
141. U7C U8A G9A U10C U11C C12G C13U  1.07
142. U7G G9A U10A C13A  1.07
143. U7G U8A G9U U10A U11C C12U C13G  1.07
144. G9C U10A C12U C13U  1.07
145. U7G U8C U11A C12G C13G  1.07
146. G9C U10C C12U C13U  1.07
147. U7A U8A G9C U10C U11G C12A  1.07
148. U7C G9U C12U  1.07
149. U7G U8C G9A U10A C13G  1.06
150. U7G G9A U10G U11A C12A C13A  1.06
151. U7A U8A G9C U10A U11C C12U  1.05
152. U7G U8A G9U U10C U11A C12U C13A  1.05
153. U7C G9C U10G U11C C12U C13G  1.05
154. U7C G9A U10G U11G C13G  1.05
155. U7C U8A G9C U11C  1.04
156. U8G G9C U10A U11G C13G  1.04
157. U7C U8A G9A U11A C13G  1.04
158. U7A U8G G9U U10A U11C C12U  1.04
159. G9C U10C U11G C12U C13A  1.04
160. U8A G9C U10C U11C C12A C13A  1.04
161. U7G U8A G9C U10C C12A C13G  1.03
162. U7C U8A G9C U10C U11A C12A  1.03
163. U8A G9U U10C U11C C13G  1.01
164. U8A G9A U10G U11G C12G C13A  1.01
165. U8A G9U U11C C12A  1
166. U8C G9C U10C C12A C13A  1
167. U7A U10A U11C C13U  1
